{"source": "ChEMBL document CHEMBL1649255", "about": "“Impact of novel human immunodeficiency virus type 1 reverse transcriptase mutations P119S and T165A on 4'-ethynylthymidine analog resistance profile” (Antimicrob Agents Chemother, 2009)", "conditions_in_all_cases": "Human immunodeficiency virus 1", "key": {"[1]": {"test_system": "Cc1cn([C@H]2C[C@H](O)[C@@H](COP(=O)(O)OP(=O)(O)OP(=O)(O)O)O2)c(=O)[nH]c1=O", "assay": "Ratio of Kcat to Km for HIV1 Reverse transcriptase M184V mutant"}, "[2]": {"test_system": "Cc1cn([C@H]2C[C@H](O)[C@@H](COP(=O)(O)OP(=O)(O)OP(=O)(O)O)O2)c(=O)[nH]c1=O", "assay": "Activity of HIV1 Reverse transcriptase M184V mutant"}, "[3]": {"test_system": "Cc1cn([C@H]2C[C@H](O)[C@@H](COP(=O)(O)OP(=O)(O)OP(=O)(O)O)O2)c(=O)[nH]c1=O", "assay": "Activity of HIV1 Reverse transcriptase P119S mutant"}, "[4]": {"test_system": "Cc1cn([C@H]2C[C@H](O)[C@@H](COP(=O)(O)OP(=O)(O)OP(=O)(O)O)O2)c(=O)[nH]c1=O", "assay": "Ratio of Kcat to Km for HIV1 Reverse transcriptase P119S mutant"}, "[5]": {"test_system": "Cc1cn([C@H]2C[C@H](O)[C@@H](COP(=O)(O)OP(=O)(O)OP(=O)(O)O)O2)c(=O)[nH]c1=O", "assay": "Ratio of Kcat to Km for HIV1 Reverse transcriptase P119S/M184V mutant"}, "[6]": {"test_system": "Cc1cn([C@H]2C[C@H](O)[C@@H](COP(=O)(O)OP(=O)(O)OP(=O)(O)O)O2)c(=O)[nH]c1=O", "assay": "Activity of HIV1 Reverse transcriptase P119S/M184V mutant"}, "[7]": {"test_system": "Cc1cn([C@H]2C[C@H](O)[C@@H](COP(=O)(O)OP(=O)(O)OP(=O)(O)O)O2)c(=O)[nH]c1=O", "assay": "Ratio of Kcat to Km for HIV1 Reverse transcriptase P119S/T165A mutant"}, "[8]": {"test_system": "Cc1cn([C@H]2C[C@H](O)[C@@H](COP(=O)(O)OP(=O)(O)OP(=O)(O)O)O2)c(=O)[nH]c1=O", "assay": "Activity of HIV1 Reverse transcriptase P119S/T165A mutant"}, "[9]": {"test_system": "Cc1cn([C@H]2C[C@H](O)[C@@H](COP(=O)(O)OP(=O)(O)OP(=O)(O)O)O2)c(=O)[nH]c1=O", "assay": "Activity of HIV1 Reverse transcriptase P119S/T165A/M184V mutant"}, "[10]": {"test_system": "Cc1cn([C@H]2C[C@H](O)[C@@H](COP(=O)(O)OP(=O)(O)OP(=O)(O)O)O2)c(=O)[nH]c1=O", "assay": "Ratio of Kcat to Km for HIV1 Reverse transcriptase P119S/T165A/M184V mutant"}, "[11]": {"test_system": "Cc1cn([C@H]2C[C@H](O)[C@@H](COP(=O)(O)OP(=O)(O)OP(=O)(O)O)O2)c(=O)[nH]c1=O", "assay": "Activity of HIV1 Reverse transcriptase T165A mutant"}, "[12]": {"test_system": "Cc1cn([C@H]2C[C@H](O)[C@@H](COP(=O)(O)OP(=O)(O)OP(=O)(O)O)O2)c(=O)[nH]c1=O", "assay": "Ratio of Kcat to Km for HIV1 Reverse transcriptase T165A mutant"}, "[13]": {"test_system": "Cc1cn([C@H]2C[C@H](O)[C@@H](COP(=O)(O)OP(=O)(O)OP(=O)(O)O)O2)c(=O)[nH]c1=O", "assay": "Ratio of Kcat to Km for HIV1 Reverse transcriptase T165A/M184V mutant"}, "[14]": {"test_system": "Cc1cn([C@H]2C[C@H](O)[C@@H](COP(=O)(O)OP(=O)(O)OP(=O)(O)O)O2)c(=O)[nH]c1=O", "assay": "Activity of HIV1 Reverse transcriptase T165A/M184V mutant"}}}
{"substance": "Human immunodeficiency virus type 1 reverse transcriptase (Human immunodeficiency virus 1) (from UniProt Q72547) M184V", "values": [{"measurement": "kcat/Km (10'-2/microM/s)", "setting": "[1]", "result": 2.6}, {"measurement": "kcat", "setting": "[2]", "result": 3.1, "unit": "×10⁻⁴ /s"}]}
{"substance": "Human immunodeficiency virus type 1 reverse transcriptase (Human immunodeficiency virus 1) (from UniProt Q72547) P119S", "values": [{"measurement": "Km", "setting": "[3]", "result": 0.13, "unit": "µM"}, {"measurement": "kcat", "setting": "[3]", "result": 3.3, "unit": "×10⁻⁴ /s"}, {"measurement": "kcat/Km (10'-2/microM/s)", "setting": "[4]", "result": 2.5}]}
{"substance": "Human immunodeficiency virus type 1 reverse transcriptase (Human immunodeficiency virus 1) (from UniProt Q72547) P119S,M184V", "values": [{"measurement": "kcat/Km (10'-2/microM/s)", "setting": "[5]", "result": 2.2}, {"measurement": "Km", "setting": "[6]", "result": 0.18, "unit": "µM"}, {"measurement": "kcat", "setting": "[6]", "result": 4, "unit": "×10⁻⁵ /s"}]}
{"substance": "Human immunodeficiency virus type 1 reverse transcriptase (Human immunodeficiency virus 1) (from UniProt Q72547) P119S,T165A", "values": [{"measurement": "kcat/Km (10'-2/microM/s)", "setting": "[7]", "result": 5.1}, {"measurement": "Km", "setting": "[8]", "result": 0.07, "unit": "µM"}, {"measurement": "kcat", "setting": "[8]", "result": 3.6, "unit": "×10⁻⁴ /s"}]}
{"substance": "Human immunodeficiency virus type 1 reverse transcriptase (Human immunodeficiency virus 1) (from UniProt Q72547) P119S,T165A,M184V", "values": [{"measurement": "Km", "setting": "[9]", "result": 0.15, "unit": "µM"}, {"measurement": "kcat", "setting": "[9]", "result": 9, "unit": "×10⁻⁵ /s"}, {"measurement": "kcat/Km (10'-3/microM/s)", "setting": "[10]", "result": 6}]}
{"substance": "Human immunodeficiency virus type 1 reverse transcriptase (Human immunodeficiency virus 1) (from UniProt Q72547) T165A", "values": [{"measurement": "Km", "setting": "[11]", "result": 0.1, "unit": "µM"}, {"measurement": "kcat", "setting": "[11]", "result": 2.7, "unit": "×10⁻⁵ /s"}, {"measurement": "kcat/Km (10'-2/microM/s)", "setting": "[12]", "result": 2.7}]}
{"substance": "Human immunodeficiency virus type 1 reverse transcriptase (Human immunodeficiency virus 1) (from UniProt Q72547) T165A,M184V", "values": [{"measurement": "kcat/Km (10'-2/microM/s)", "setting": "[13]", "result": 1.3}, {"measurement": "kcat", "setting": "[14]", "result": 1.4, "unit": "×10⁻⁵ /s"}]}
